According to the supplement of paper PMC10724198:
± gives the standard deviation of the averaged measurements.

Tested on: Saccharomyces cerevisiae
Assay: protein stability index of tFT-peptide fusion (C-terminal peptide) (PSI (0-1 scale)); higher = more stable (slower turnover)
Details: genetic background: das1 deletion; temperature: 30 C
Method: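 MPS profiling in S. cerevisiae of the tFT-X12 degron library: putative degron peptides plus stable controls, 12 aa, fused to the C-terminus of a sfGFP-mCherry timer. Cells are FACS-sorted into 8 mCherry/sfGFP bins and deep-sequenced. PSI runs from 0 (unstable) to 1 (stable). Backgrounds are wild type, das1Δ and doa10Δ at 30 °C, and wild type, das1Δ, cdc34-1 and cdc53-1 at 37 °C; 2-3 technical replicates each.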
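Also: PSI is a weighted mean of sequencing reads over stability bins, variants kept only with over 10 reads, mCherry proximal and sfGFP distal, peptide attached via GGGS linker.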

Sequence | protein stability index
CVGLYCLFVLLG | 0.273 ± 0.034
CVISLVTAVRLF | 0.453 ± 0.022
DDVRFLLWGLCC | 0.398 ± 0.024
DQPLWIGVLAYC | 0.31 ± 0.04
DRRYIISLIYIL | 0.369 ± 0.023
DSGMLDFLLMAW | 0.432 ± 0.035
DSTLLYRPPSPA | 0.646 ± 0.019
DVVVIFGILCYC | 0.156 ± 0.045
DYRCWCAILVSS | 0.207 ± 0.029
DYSVIPSLALLP | 0.657 ± 0.028
ECLRLTTKKKIN | 0.657 ± 0.055
EDRKRNKERRWT | 0.642 ± 0.015
EFWWPFDRRGVI | 0.7244 ± 0.0059
EKKRERQKGEME | 0.6109 ± 0.0056
ETQKEKRENAKP | 0.646 ± 0.032
EVGFHRRWVALS | 0.65 ± 0.015
EWGLGEIVVKVA | 0.534 ± 0.011
FAFPTPPPLLFD | 0.693 ± 0.035
FCGWLGVYLVKG | 0.484 ± 0.026
FCSFSWFLFLRS | 0.329 ± 0.02
FCVLLFCAVSDL | 0.239 ± 0.036
FCVVFFLSLVFL | 0.391 ± 0.027
FFDLSLYSLCLC | 0.466 ± 0.013
FFFFPVYFIFVV | 0.259 ± 0.02
FFFFSMFSFFIP | 0.485 ± 0.017
FFFVLVSGWWGV | 0.237 ± 0.027

Sequence | protein stability index
FFLDRLVIRLIA | 0.248 ± 0.029
FFLFFLSFGCFL | 0.421 ± 0.029
FFLKPVPSLFLC | 0.519 ± 0.021
FFLVLWSSLLSP | 0.378 ± 0.035
FFRPWRLVGCLV | 0.265 ± 0.024
FFSFTVLVSYGF | 0.192 ± 0.025
FFSLMFVFLTVF | 0.201 ± 0.03
FFSLRRAVTVSA | 0.212 ± 0.028
FFSPFFFFLFRL | 0.366 ± 0.035
FFVISVVLCLLV | 0.341 ± 0.022
FFVRSWWVELLF | 0.558 ± 0.026
FFYRFQDLPRIC | 0.651 ± 0.015
FGFFLFIFFFFR | 0.301 ± 0.032
FGFFRLVIVCFR | 0.175 ± 0.032
FGFWGVVSCCNA | 0.472 ± 0.02
FGPRLLRVMRLL | 0.639 ± 0.018
FGVLFFVFVFVC | 0.193 ± 0.02
FGVLLVWWYGLF | 0.253 ± 0.05
FGVSLFLPLSVV | 0.32 ± 0.026
FIFYYTVLLLCR | 0.131 ± 0.024
FIICAASWFFLG | 0.474 ± 0.036
FILATGKGRWVV | 0.636 ± 0.0087
FILSLSFVFSRP | 0.425 ± 0.027
FIRLTFLRLSCI | 0.51 ± 0.034
FLASLCFFPLLC | 0.42 ± 0.027
FLAWSVGILCRV | 0.238 ± 0.036

Sequence | protein stability index
FLCLFFLAVIKL | 0.344 ± 0.034
FLFLLLFLLLCC | 0.377 ± 0.03
FLFPFLSVLFLL | 0.479 ± 0.03
FLFSVVFFFFSL | 0.353 ± 0.021
FLLEVFVLGRTL | 0.43 ± 0.018
FLLFSFFFFFFF | 0.409 ± 0.041
FLLPILSSSPVL | 0.657 ± 0.011
FLRLSFLIFPLH | 0.471 ± 0.03
FLSCSRRPLRCW | 0.303 ± 0.035
FMPFSLLALFVW | 0.267 ± 0.02
FNLTCLLISFFN | 0.453 ± 0.036
FPCIFFFCLFIL | 0.251 ± 0.027
FPLGMFWVCFFV | 0.357 ± 0.03
FPYARHLSVLLL | 0.564 ± 0.018
FRFSCLFSLFLS | 0.478 ± 0.029
FRLFSLWFCWVR | 0.227 ± 0.025
FRVSAFFLPFLS | 0.655 ± 0.022
FSFLLYASLVTH | 0.307 ± 0.021
FSGFPLTLSPPL | 0.67 ± 0.024
FSVLLLANFCFF | 0.409 ± 0.037
FSVLRLVIVSLL | 0.35 ± 0.037
FSVSYFRLVRLC | 0.458 ± 0.032
FTNLDYTKEKNN | 0.623 ± 0.052
FVIVSSCIGYAL | 0.451 ± 0.028
FVLLSVCFFGCL | 0.336 ± 0.024
FVMLSFLVSSLP | 0.346 ± 0.028

Same assay, conditions: genetic background: das1 deletion; temperature: 37 C

Sequence | protein stability index
CVGLYCLFVLLG | 0.449 ± 0.019
CVISLVTAVRLF | 0.589 ± 0.019
DDVRFLLWGLCC | 0.5595 ± 0.0051
DQPLWIGVLAYC | 0.502 ± 0.011
DRRYIISLIYIL | 0.576 ± 0.035
DSGMLDFLLMAW | 0.57175 ± 0.00049
DSTLLYRPPSPA | 0.7252 ± 0.0017
DVVVIFGILCYC | 0.3173 ± 0.0014
DYRCWCAILVSS | 0.3345 ± 0.0016
DYSVIPSLALLP | 0.733 ± 0.015
ECLRLTTKKKIN | 0.704 ± 0.032
EDRKRNKERRWT | 0.716 ± 0.0076
EFWWPFDRRGVI | 0.83 ± 0.015
EKKRERQKGEME | 0.72 ± 0.027
ETQKEKRENAKP | 0.71 ± 0.035
EVGFHRRWVALS | 0.737 ± 0.019
EWGLGEIVVKVA | 0.684 ± 0.015
FAFPTPPPLLFD | 0.735 ± 0.0083
FCGWLGVYLVKG | 0.656 ± 0.0023
FCSFSWFLFLRS | 0.359 ± 0.0085
FCVLLFCAVSDL | 0.4433 ± 0.0013
FCVVFFLSLVFL | 0.511 ± 0.013
FFDLSLYSLCLC | 0.6476 ± 0.0029
FFFFPVYFIFVV | 0.409 ± 0.013
FFFFSMFSFFIP | 0.564 ± 0.013
FFFVLVSGWWGV | 0.472 ± 0.044

Sequence | protein stability index
FFLDRLVIRLIA | 0.383 ± 0.0071
FFLFFLSFGCFL | 0.5391 ± 0.0019
FFLKPVPSLFLC | 0.6657 ± 0.0034
FFLVLWSSLLSP | 0.572 ± 0.006
FFRPWRLVGCLV | 0.3692 ± 0.0036
FFSFTVLVSYGF | 0.34 ± 0.0067
FFSLMFVFLTVF | 0.276 ± 0.015
FFSLRRAVTVSA | 0.372 ± 0.0052
FFSPFFFFLFRL | 0.453 ± 0.0074
FFVISVVLCLLV | 0.447 ± 0.022
FFVRSWWVELLF | 0.682 ± 0.024
FFYRFQDLPRIC | 0.7358 ± 0.0068
FGFFLFIFFFFR | 0.429 ± 0.015
FGFFRLVIVCFR | 0.313 ± 0.0089
FGFWGVVSCCNA | 0.599 ± 0.0011
FGPRLLRVMRLL | 0.7306 ± 0.0047
FGVLFFVFVFVC | 0.322 ± 0.011
FGVLLVWWYGLF | 0.4335 ± 0.0032
FGVSLFLPLSVV | 0.46 ± 0.011
FIFYYTVLLLCR | 0.171 ± 0.0048
FIICAASWFFLG | 0.62 ± 0.02
FILATGKGRWVV | 0.7432 ± 0.0033
FILSLSFVFSRP | 0.462 ± 0.012
FIRLTFLRLSCI | 0.638 ± 0.031
FLASLCFFPLLC | 0.5574 ± 0.0039
FLAWSVGILCRV | 0.351 ± 0.011

Sequence | protein stability index
FLCLFFLAVIKL | 0.412 ± 0.031
FLFLLLFLLLCC | 0.534 ± 0.049
FLFPFLSVLFLL | 0.5591 ± 0.0049
FLFSVVFFFFSL | 0.5154 ± 0.003
FLLEVFVLGRTL | 0.597 ± 0.0081
FLLFSFFFFFFF | 0.52 ± 0.013
FLLPILSSSPVL | 0.735 ± 0.012
FLRLSFLIFPLH | 0.583 ± 0.0021
FLSCSRRPLRCW | 0.4962 ± 0.00098
FMPFSLLALFVW | 0.372 ± 0.0064
FNLTCLLISFFN | 0.658 ± 0.0081
FPCIFFFCLFIL | 0.337 ± 0.025
FPLGMFWVCFFV | 0.512 ± 0.025
FPYARHLSVLLL | 0.681 ± 0.022
FRFSCLFSLFLS | 0.5168 ± 0.0051
FRLFSLWFCWVR | 0.297 ± 0.014
FRVSAFFLPFLS | 0.735 ± 0.015
FSFLLYASLVTH | 0.333 ± 0.021
FSGFPLTLSPPL | 0.753 ± 0.013
FSVLLLANFCFF | 0.554 ± 0.015
FSVLRLVIVSLL | 0.537 ± 0.019
FSVSYFRLVRLC | 0.602 ± 0.0083
FTNLDYTKEKNN | 0.708 ± 0.042
FVIVSSCIGYAL | 0.584 ± 0.0076
FVLLSVCFFGCL | 0.495 ± 0.017
FVMLSFLVSSLP | 0.513 ± 0.006
